Experimental data: the DeepSol protein solubility set

Assay: soluble on expression in E. coli; label from the status in PepcDB or PDB records

| Sequence | soluble on expression in E. coli |
| --- | --- |
| GPGSMTNQSDAIFPNILWAQRAELVLITIPLQDATNVVVEIKEGRVLHFEAEAGGEKYRCDVELFREVVSEESRHAAQPRQIDIQLRKKAPLTESGEEEFAQSRSWLRLTRDKSKNSHIQVDWSRWRDEDEDEDETGGLGMDYNDLMSRMMTQKGLGEDDCMDCGNHTDEDGVGPGADKANHSDSDDYDDLPPLEP | soluble |
| MFRNAAELVAQAKEQNVKIAEIMIQCEMETRSISREEVIAGMEKNLVVMEQAVERGIRGVKSPTGLTGGDAVKVQAYMKSGKGLSGDTILDAVSKAVATNEVNAAMGIICATPTAGSAGTVPGVLFALREKLQPTREEMIEFLFTAGAFGMVVANNACISGAAGGCQAEVGSASGMAAAAAVEMAGGTQEQAATAMAISLKNMLGLVCDPVAGLVEVPCVKRNAAGAANAMISADLALAGVTSTIPCDEVIEAMFRIGQTMPVALRETAEGGLAATPTGRRLQEEIFGKTNN | not soluble |
| KALEEMHIPVDIITGTSMGAYVGGLYATGMSADEIESFIYSVDWNSGYRDRVDRSQRRVRDKEYEDRYQITTDLGLRFGEVRAPTGVVQGQNMLRVLRETTGNLGRFDSFDELAIPYRSVATDILELDEVVIGNGYLVDAMMASMSVPGALPPYKLNGHMLVDGGVVNNMPVDVARAMGADVVIAVDISTDYKTEDDFTGLFTVADQLSNYLVRRSTQQQVETLQEHDVYIRPNVGQMETVEFDKMPWAFQSGYDITREMESKLAGLRLSNAEYQKYIDHKQEVRKKLVYGDDRVVDEIVIVNNTHYS | not soluble |
| MRKEAIHHRSTDNFAYAYDSETLHLRLQTKKNDVDHVELLFGDPYEWHDGAWQFQTMPMRKTGSDGLFDYWLAEVKPPYRRLRYGFVLRAGGEKLVYTEKGFYHEAPSDDTAYYFCFPFLHRVDLFQAPDWVKDTVWYQIFPERFANGNPAISPKGARPWGSEDPTPTSFFGGDLQGIIDHLDYLADLGITGIYLTPIFRAPSNHKYDTADYFEIDPHFGDKETLKTLVKRCHEKGIRVMLDAVFNHCGYEFAPFQDVLKNGAASRYKDWFHIREFPLQTEPRPNYDTFAFVPHMPKLNTAHPEVKRYLLDVATYWIREFDIDGWRLDVANEIDHQFWREFRQAVKALKPDVYILGLIWHDAMPWLRGDQFDAVMNYPLADAALRFFAKEDMSASEFADRLMHVLHSYPKQVNEAAFNLLGSHDTPRLLTVCGGDVRKVKLLFLFQLTFTGSPCIYYGDEIGMTGGNDPECRKCMVWDPEKQNKELYEHVKQLIALRKQYRALRRGDVAFLTADDEVNHLVYAKTDGNETVMIIINRSNEAAEIPMPIDARGKWLVNLLTGERFAAEAETLCVSLPPYGFVLYAVESW | soluble |
| MVLLDNADRVVLLTEKERPRGRKIDISLTFLLPHDNWFSVEDGVSDHYFSRRGFLRASLLGVLCLRGIGSALATEFLEESYPVGRLSLRNIHTGEHLSVTYRTPDGEVDLDALNSINWLLRCHFTNQHTEMDLAVIEYLNMVDKVLGGGREFRIISGYRSPEYNRILSEHNGAVAKQSLHMEGKAIDIAVPGVSLAVLRDLAAGFRCGGVGYYPHSGFVHLDSGRFRTW | not soluble |
| MEKVNPKIQRLMSTDKQHFLTKHEFHTKETAERKDLLKFFIETRLKTDGGFLTNYLPDAERKDVATGHELLSESSGLYLRNLAFDTQGRFDNFYKQTKDTFYDGVQFSYRIDEQGNKYNVNASIDDLRIIRSLIEAGGHFKTDQYDQEIKKLGKSFMKTSMKDNILIDFYDSKSKQQSSETSLFYIDLITLGYLYKEFGISADYLQYHYQLIDDGYISDDLPLYQTKFNHQTNKYENNGTLNIIESLLTIVHLSEVGMAKQTSIDFVRKQVQQGTLFNSYDLNGSPVDKNQSAASYAIAALIGVAENDKELYRAAITVLNNFQIMDSSSPIYGGFGDKVTKQVYSYNNLMALLAYDF | not soluble |
| MELSSPITIYWDLPATAADPSLLLAIAAGIIDCRPLMLNVTSTAPTSPGWLGEVLERFRGGPAAVTLTIPPQAHDDTVRALVAHGAVRELLLDVDHADLLDSGEWQDEPSAGVSYAVTHGNWRELPTLVHYCLDRGITRLVLPMQRLYGGEPPFFLTMNEQRELANALDAEGGAQRLALTIHDPFLWRAFNPGVPFPQGGCQAANTMIAIAPDGGVYPCPTLPVRLGTAGEMPLQELIASEAKKALRRRLLEHPRACGACGELAECRGGCRGRAYVMHQSLEGEDPSCWLEHHHHHH | not soluble |
| MGHHHHHHSHMANSAGSMANSAGSMFKLYSLAREFARDLLFEINGDVVTLSIKGVLLANTSSTSSNFSIFEVSENEFILAIQTSGYVVYLGIEAEEEIEEEVYPSLVRIIISEVMPIINNLVQVAKELSYKGADILLDDNMSSSLREAMYNLLLKHKKGKSPYEQVEVA | not soluble |
